Reference: publication doi:10.1101/776187

Experiments:
[1] = target: human cytoplasmic dynein (recombinant complex of DHC, DIC, DLIC, Tctex, Robl and LC8) (human) (UniProt Q14204)
[2] = target: dynactin (bovine (purified from bovine brain))

Drosophila BicD-coiled-coil domain 1 (truncated N-terminal fragment of Dm BicD) (domain or fragment)
processive run length of DDB^CC1 on microtubules, single molecule TIRF [1]: 2.8 µm | speed of DDB^CC1 on microtubules, single molecule TIRF [1]: 0.41 µm/s | processive run length of DDB^CC1 on microtubules, single molecule TIRF [2]: 2.8 µm | speed of DDB^CC1 on microtubules, single molecule TIRF [2]: 0.41 µm/s
